Measurements reported in PMC2662861, “An unexpected phosphate binding site in Glyceraldehyde 3-Phosphate Dehydrogenase: Crystal structures of apo, holo and ternary complex of Cryptosporidium parvum enzyme” (BMC Structural Biology, 2009).

Substrate: O=C[C@H](O)COP(=O)(O)O
Test: purified protein
Type: biochemical, Cryptosporidium parvum
Conditions: 150 μM NAD, 50 mM triethanolamine, 50 mM Na2HPO4, 0.2 mM EDTA, pH 8.8, D-G3H 1.47-5.88 mM supplied as DL-G3H

B1: CpGAPDH (Cryptosporidium parvum glyceraldehyde 3-phosphate dehydrogenase) (Cryptosporidium parvum) (protein)
chain: MTATLGINGFGRIGRLVLRACMERNDITVVAINDPFMDVEYMAYLLKYDSVHGNFNGTVEVSGKDLCINGKVVKVFQAKDPAEIPWGASGAQIVCESTGVFTTEEKASLHLKGGAKKVIISAPPKDNVPMYVMGVNNTEYDPSKFNVISNASCTTNCLAPLAKIINDKFGIVEGLMTTVHSLTANQLTVDGPSKGGKDWRAGRCAGNNIIPASTGAAKAVGKVIPALNGKLTGMAIRVPTPDVSVVDLTCKLAKPASIEEIYQAVKEASNGPMKGIMGYTSDDVVSTDFIGCKYSSIFDKNACIALNDSFVKLISWYDNESGYSNRLVDLAVYVASRGL
notes: recombinant, N-terminal hexa-histidine tag kept, expressed in E. coli; homotetramer
**Q.** For B1, which Km is on record?
**A.** Its Km is 762.7 ± 43.0 µM.
